Source: patent US20210369837A1, “METHODS OF TREATING TIM-3 ELEVATION” (ADVANTAGENE, INC., priority 2016, published 2021)

System: PD-L1
Experiment: Flow cytometry of PD-L1 protein expression after interferon treatment
Type: cell-based, mouse
Settings: CT2A and GL261 cells, day 4 post-treatment, IFN-β 1000 U/ml (FIGS. 5C-5F)
Procedure: In another experiment, CT2A and GL261 cells were treated with IFN-β (1000 U/ml) (PBL Assay Science, Piscataway N.J.) and/or MAR-1-5A3 monoclonal antibody against IFNAR1 (BioXcel, West Lebanon, N.H.) ([…]). Cells were analyzed by flow cytometry for PD-L1 protein expression at day 4 post-treatment using either in the absence of specific antibody (isotype) or with PD-L1 specific antibody (BD Bioscience, San Jose, Calif.). Cells analyzed were either subjected to no treatment (untreated), or treated with INFα or INFβ.
FIG. 5D and FIG. 5F show quantification of the percent of live cells analyzed by flow cytometry that express surface PD-L1 above baseline.

B1: IFN-β: IFN-β (1000 U/ml) (PBL Assay Science) used to treat CT2A and GL261 cells (protein, UniProt P01575 22-182, looked up)
Interferon beta: INYKQLQLQERTNIRKCQELLEQLNGKINLTYRADFKIPMEMTEKMQKSYTAFAIQEMLQNVFLVFRNNFSSTGWNETIVVRLLDELHQQTVFLKTVLEEKQEERLTWEMSSTALHLKSYYWRVQRYLKLMKYNSYAWMVVRAEIFRNFLIIRRLTRNFQN
- Surface expression of PD-L1 protein: increased surface expression of PD-L1 protein
- Surface expression of PD-L1 protein (listed as INFβ): Increases in surface PD-L1 expression
